# Assay results as given in the DeepSol protein solubility set.
# Assay: soluble on expression in E. coli; label from the status in PepcDB or PDB records
row,Sequence,soluble on expression in E. coli
1,MDDPKQPTWNVSPSLRRHARELRKKSTEAERLMWGELRDKRLNGFSFKRQVPIGPYIADFACHAKKLVVELDGGQHFSDDGERSDAARTAAIEARGFRVIRFSNHEVMTNRAGVLQSIADVLAARVLTPTLSRKRERERAKRAAKPRSDAGAANDQGDE,not soluble
2,MDDSQESSFSVSKYETNDDGSMGQFISINECEREIQMLERDIRQQKESSANAKTAITFDQLRKIHTLSTLLGPHKELFFDRICRAADIQRASLKNRLKSNINKFEPSTPLSFQPGFDSQSSLSTTSESQNFVVTPTTLSSLLNNHTRKNHIEMLAPLASEEELMRFPAERQFDLMQIGFSYDEVKQLLEMFEKFKNDVQEINRLHTLTQILNQFCNYISMYAPPNLKMISSAFNLLELGNSAHEVKRVLLKARRREESEESDVSFSKKPRPSSRSPASPNRDDLLLGLDRSPPSDDGTQKV,not soluble
3,MDEDVLPGEVLAIEGIFMACGLNEPEYLYHPLLSPIKLYITGLMRDKESLFEAMLANVRFHSTTGIDQLGLSMLQVSGDGNMNWGRALAILTFGSFVAQKLSNEPHLRDFALAVLPAYAYEAIGPQWFRARGGWRGLKAYCTQVLTDDDDLEHHHHHH,soluble
4,MDEEKIVLIGNESDLLHCGYNFALRAGGKRYPSAAHYTHYQILMSLNLPETAVEELLCTNSCDVHQKALVILQENMPDGHTINSLAAYLSESLRSYSIHALQLRAESDKDFEKTLMKTNEALLIVCDEKNPQLGIGMNDKTFMEWMAKEKADSRQISYWMKNEHTKPADLGQNKLGQYLMWLRFEIRERKKQGILTRPVVEVAGLSTDKDDEPIMISINDLVISLEGIFRPLSNYYAFPFEMKRERYRSVEHYAYEKLFNSLKLDEKAIEKIQTTPAPLNVPVVASKLLRKLEINPETIAEKTSKMDRWRQSAMKHKIYHNEYLQQLLLSTGSAILIDSSLGDPLWTCGATEVELQHLLTKSYVTPEKLVGWMLDGEETNTPKSVRHLYGNKSGLLLMELREKLSLQTTSRIPLVKLSKMNLNPLSGIVTPNVICFTPESVFHPLYPAEIRCSADGPPLPSPVHYVATQAAKFLSMNQEDTEYILEGPSSIQCWSRLHEVIESRGRGLELEQTWWMDKRMQFIKESLQLLLEQHPALLRALLDTGDSMLVYCSRFSSMDAELSMGMREMDFRYWLQEVDLTTKQLIELCTRPMAFRPPYIGGNRLGMILMELRREFVLQGVFPQQLPELQLTADSILGSNSPTENFMTSEYFDILQPWNYTALWINPLFLLAKDGNQEAMAQCTRIKTAPRMVTIDDEKVTDIVENLVNDETQEEALNSIAPEDLRAVFMKLCARLRGKIETLDRQSMELSMVAMETHRLQSIRRSLADTAERAETEGPSSSTGPSISAPPIPSRPGHSNYRMAAGRERDREEEREKDRERLQSQLSTSSSGPQGSASRKERMEYKIPTTSRRKFGKDRDRLPEKSSSDRGRDKHLDTPTKKRVNQSPPSRKAAPSPAKKPAISTSTPAVVVPPKPKRDPEEELSDGEILSTDEEDN,not soluble
5,MDERRFFRDVCAEWMEQYRLTVRESTLEKTQRIINIHVLPAFGDMVINNITPNVCQKVVNKWFLEAKSYKKWLNYASMIFDYALRAEYVGRNPCTLVTMPRVQEQAGEKLEHHHHHH,not soluble
6,MDEVANALAVSQTMMEKMQKLEISKNYDVEKFETLLRLPARDVNTFMEKEAKKTDDEKMTDMDRRIKRIREDKTDRAARTLQKYFRKIRVKGEQNHINKRISKIPAKRRVVLLEQIRQKMGEQQPIRRFGGYQVIRAVELHKGKQKLQKDWLAKLSIDVNFHDKNLSRPNSPTHFIANSIPTLIRKKAEMKHAEKMQEIDSSIMDIYCGFQKDNLH,not soluble
7,MDGDGDPESVSHPEEASPEEQPEEAGAEASAEEEQLREAEEEEEAEAVEYLAELPEPLLLRVLAELPATELVQACRLVCLRWKELVDGAPLWLLKCQQEGLVPEGSADEERDHWQQFYFLSKRRRNLLRNPCGEEDLEGWSDVEHGGDGWKVEELPGDNGVEFTQDDSVKKYFASSFEWCRKAQVIDLQAEGYWEELLDTTQPAIVVKDWYSGRTDAGSLYELTVRLLSENEDVLAEFATGQVAVPEDGSWMEISHTFIDYGPGVRFVRFEHGGQDSVYWKGWFGARVTNSSVWVEP,soluble
8,MDGILSHNSKKTADFDEYELYRRLKSWYKEDVEHVNEWREQAREDFDFYNGRQWAEEDLAVLKAQRRPVMTFNRIAPLVNAIVGAERNNKREVQFQPRQAGAAISNELLTGAAEWFRDEAEAEYADSDAFQDMVICGMGWTDTRLDYETDPEGIPAIQRLDPLKMVWDANAVRPNLIDAQRMWYVDRKPVEDAKSLFPDVAVEDLHADWATDNTTACEEYHVSLDAYNDHANADSLSQSASEKRYVTLVECRWFEYEVYFKAPDLQTGQMRSYSKQEFEQLQRVAPQLQGVRFNKKVVKRAFLGRRLLAKPDKPLAPDGQLGWECITGTLDKLKNQFYGIVRPAKDPQKWSNKYFSQVMYILNSQAKGGLMAERGAFDDERQALENWTRTDTITWVKNGALTGGKIQPKPSAQFPNGFFQLFNESREAITHVTGLSAEFIGTREVNQANVLENTRRQSTLNLLAGLFDNLKLYRCRQGKIILYLIQNYLSDGRLVRISGPENAQYVPLTREAVTKLEYDIIVDDSPTSPNEKERTFAAITQMLPLLGGFLTPEMIPDLLKLSPLPATLVANLTAKAQQAQQEQQQQQMMQQNQGTQLNPEQQAKIAALQQEAQAKGTLYQLDAQQKQLALQQKNIELFLKQEQARMQLELQRAKNEIAQRDLERKSLQAQLEHYRVLTKRLIPH,not soluble
9,MDGMTPNRLLDLAIQSLLSNESAAIQALEDIPRELFVPLFIAAFKGGHKNTLSAMVKVWPFYCLHMGSLRILEPQHELLKAIIENLPVHPAQTSAFWGPKLRILDLRQDTNCRITCPEVSTKSPSCFHSCIYSDSSITKIERQLCFINSGCKTLLPRPVELILDLFLDGSLIEKDFLILLMHKIEESLGFLHVCCRDLQIDKPCKCKCTLKFLDLQCVDQLSVDRGSLSDITSILGQMGHLESLTLSNVTFRSLRGKVFKIFLSHLQRMENLKELSFSSFRLKNHLDRVLRVLPPDLDFLYLPFCGLSYRDIKFMSQSPHVTHLKLLNLSNNLMYWDDFGPFHSVLSNLSGTLQHLEINHCHISDSAISALIPALIRCTHLRVLGFACNPITMPMLVNIMHHLTPMMELKYVIYPIPVHCYERWHFHGSLDRGKLAIKVLGLPVQAKYPRNGWSKAISSSDENIPKAQTDTIPTCSWSWSLSRLQSAVQPPRDNLGRWKDTYAERAGNAVHGAV,not soluble
10,MDGNQYEAIFLNYFRGIFPNADNLNVKCVKRMSEQQMKTTISRHGMRCTVLNGKDKISSYTVKKIVETPGKREYYGVRDIFAFKLLDMMGVGPKVHFVSNGEVGDDVGLFIVTEDD,not soluble
11,MDHGRRRLHSGSTPRGGERPAKRERISVEEQQSQEIRNLKRKLEEARQREDKYIKNEQLHHTAMRSKQQRIERMEKSMESTNRKMYATQCRLNDMENIYDDLEMESKIMADFIDHYYDSRNITEEDRDELQDKLDEEAANYRDLEDRIKEVRHRDRYMKTVETERKRTTFYRKKMLELAEQLQFEQQEVTGETPLWKLCEICAHQFSHSDEYVPRVLVCGHTLCTSCIEKLDVGDGIRCPFCRTWTNMKRIEALPKNFQILQM,not soluble
12,MDHRRLWRAANRLASDRLGSGEMCCALTSPTSTAQSPSTSFFFGSSLPFLLATIPHTLISAIAEHAILHAWYGGPHVYPDAKLPCPTATFVFKDSPLLRVDDVTSLQWDRAQAANFLVAVLRQPAVQKELRQRLWSAVQNCHRGVLRKLESLAVQKDVEGASKEAAADRLILLDQEPGMPSPPSLSLREVRDDLFSFDELLYFVRVSPSTSSTSRQQRVECESLRSTHLFRFVTSRADVAAALRDRPRSNVSDLLFCVSLRNGDTSAKASSAPVSLSTRDKLWLLLSEMVRLRYLVAYLLNFEVMLHRVRNSTRHSQRGQSTSKEVDSAGFPGNSSSEHADAQDAENAKCIAAVFRFLDIRLHTRLAVSPHHRRFLRHARVRHCERSATPEPPDRATAAHEATDADTSVRHEARRYATVQELFSAFSKALEESTTPPSQLPATVASFTSLAKSPGEGQGAAENGIEAMSKRPDHMRGRSARQNVVQARATSDGPSSLSDTDDEFLKAIVSATRQDQPPDSTVQSTPMRATHRGGVKSPSANPGELPCSRGLPGRRCLTAERSTTCLPQSRRAAEDPHPFVDVVFERKSNRSKWPFQALRARTNASNFKVRFGGSHDASSHAAVICFQLSCTREEREKAEIAPLSGKSAADLLQQYPYVTHVNGISARKVELVVRLFRSAHVLKLRLARRPPDR,soluble
13,MDICERSDEVVRYDSAQIRNGELELSSTVDDALFTDGLVATSGMLNADCRLVFGLVMFGHPLDEPMLCFTANGFELTVSIPNEDGETSSTWVIMARER,not soluble
14,MDKAIIDIYYCRQCNWMLRSTWLSQELLHTFSEEIDTISLHPDTGGRFEIFCNGQQIWERKKDGGFPEAKVLKQRVRDIIDPERDLGHSDTKLEHHHHHH,soluble
15,MDKFRVYGQSRLSGSVNISGAKNAALPILFAAILATEPVKLTNVPELKDIETTLKILRQLGVVVDRDATGAVLLDASNINHFTAPYELVKTMRASIWALAPLVARFHQGQVSLPGGCSIGARPVDLHISGLEKLGADIVLEEGYVKAQVSDRLVGTRIVIEKVSVGATLSIMMAATLAKGTTVIENAAREPEIVDTADFLNKMGAKITGAGSAHITIEGVERLTGCEHSVVPDRIETGTFLIAAAISGGCVVCQNTKADTLDAVIDKLREAGAQVDVTENSITLDMLGNRPKAVNIRTAPHPGFPTDMQAQFTLLNMVAEGTSIITETIFENRFMHIPELIRMGGKAEIEGNTAVCHGVEQLSGTEVIATDLRASISLVLAGCIATGETIVDRIYHIDRGYEHIEDKLRGLGAKIERFSGSDEA,soluble
16,MDKKANSNQNQEQKRETSDAVDRAAKAGLFNRIYVTVGQKVGIVELTKLEPRFERNIEKLTTYHNIIYNMVNAIELQVQVDPKAIVKNQVLCDPDESPWELLGGWINYMGTYHFNGPQSKILDAYSIACGKIGQKERQLQKRTRSHCIKKMRMYTADESVELNNHVAHLKDLLIAIDDSRHQLKSSRTTKEVKAKGEIYRKNIQAFNCTANEVQARLDEVPMIVPHHENELLKFSREVSIFNNSVENLLKEVVFRLGYGKRNDKPSTRAVLK,not soluble
17,MDKKIIGIDLGGTTIKFAILTTDGVVQQKWSIETNILEDGKHIVPSIIESIRHRIDLYNMKKEDFVGIGMGTPGSVDIEKGTVVGAYNLNWTTVQPVKEQIESALGIPFALDNDANVAALGERWKGAGENNPDVIFITLGTGVGGGIVAAGKLLHGVAGCAGEVGHVTVDPNGFDCTCGKRGCLETVSSATGVVRVARHLSEEFAGDSELKQAIDDGQDVSSKDVFEFAEKGDHFALMVVDRVCFYLGLATGNLGNTLNPDSVVIGGGVSAAGEFLRSRVEKYFQEFTFPQVRNSTKIKLAELGNEAGVIGAASLALQFSKEK,soluble
18,MDKNLLEAVKFDEKGLVCAIAQDAETKRILMVAWMNAEALQKTVETGFAHYYSRSRQKQWMKGEESGHTQKVRALRLDCDGDAIVMLIAQNGGIACHTGRESCFYKVWRGSAWETADAVLKDEKEIYGSTH,not soluble
19,MDKQHFKLWYFQFRGRAEPIRLLLTCAGVKFEDYQFTMDQWPTIKPTLPGGRVPLLDVTGPDGKLRRYQESMAIARLLARQFKMMGETDEEYYLIERIIGECEDLYREVYTIFRTPQGEKEAKIKEFKENNGPTLLKLVSESLESSGGKHVAGNRITLGDLFLFTTLTHVMETVPGFLEQKFPKLHEFHKSLPTSCSRLSEYLKKRAKTPF,soluble
20,MDKQVRNTTEIVRLAKQKSKKTREKVDKAISKFSIEGKVINFNSIAKEANVSKSWLYKEHDIRQRIESLRERQITANVVSKPKKSSRSEEILIKTLKRRVMELEKENKKLQNQIQKLYGDLYNKELEHHHHHH,soluble
